test system: Escherichia coli TOP10; test: shrunken log2 fold change of peptide-encoding DNA abundance (4.5 h post-induction vs induction); higher = less antimicrobial activity (less host growth inhibition); details: time post-induction: 4.5 h; library: site-saturation at positions 5, 18, 19, 20
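Further: peptides expressed intracellularly from a pBAD plasmid library in pooled LB shake-flask culture, induced with 0.3% L-arabinose, DNA abundance read by NGS, three biological replicates, DESeq2 with apeglm shrinkage.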

Sequence | shrunken log2 fold change
RRIRVRPPRLPRPRPRPPSAPRP | 0.47
RRIRNRPPRLPRPRPRPKANPRP | 0.177
RRIRCRPPRLPRPRPRPNVQPRP | -0.0319
RRIRTRPPRLPRPRPRPLLQPRP | 0.173
RRIRSRPPRLPRPRPRPMEDPRP | 0.189
RRIRNRPPRLPRPRPRPQQAPRP | -0.356
RRIRHRPPRLPRPRPRPINEPRP | -0.99
RRIRNRPPRLPRPRPRPKTNPRP | 0.0551
RRIRVRPPRLPRPRPRPKGYPRP | -0.0404
RRIRERPPRLPRPRPRPKHVPRP | -0.146
RRIRERPPRLPRPRPRPYEMPRP | -1.05
RRIRPRPPRLPRPRPRPYSRPRP | -0.368
RRIRIRPPRLPRPRPRPLPPPRP | 0.127
RRIRHRPPRLPRPRPRPYWWPRP | -0.196
RRIRYRPPRLPRPRPRPNHQPRP | -0.573
RRIRMRPPRLPRPRPRPQWPPRP | -0.132
RRIRGRPPRLPRPRPRPSGMPRP | 0.48
RRIRERPPRLPRPRPRPQNTPRP | -0.497
RRIRCRPPRLPRPRPRPQMNPRP | -0.416
RRIRERPPRLPRPRPRPTCWPRP | 0.0288
RRIRNRPPRLPRPRPRPIICPRP | -0.0922
RRIRDRPPRLPRPRPRPQGNPRP | -0.0306
RRIRGRPPRLPRPRPRPAYWPRP | -0.0674
RRIRERPPRLPRPRPRPNPDPRP | -0.2
RRIRGRPPRLPRPRPRPMSQPRP | 0.213

Sequence | shrunken log2 fold change
RRIRYRPPRLPRPRPRPPMCPRP | -0.0507
RRIRMRPPRLPRPRPRPSCIPRP | -0.27
RRIRNRPPRLPRPRPRPAVMPRP | -0.0474
RRIRERPPRLPRPRPRPLGRPRP | -0.0894
RRIRLRPPRLPRPRPRPPKEPRP | 0.00696
RRIRRRPPRLPRPRPRPKGDPRP | 0.3
RRIRSRPPRLPRPRPRPNRWPRP | -0.0554
RRIRNRPPRLPRPRPRPHRKPRP | 0.0299
RRIRARPPRLPRPRPRPFVLPRP | -0.181
RRIRMRPPRLPRPRPRPCVRPRP | 0.0764
RRIRLRPPRLPRPRPRPEKQPRP | 0.0884
RRIRHRPPRLPRPRPRPRHLPRP | 0.184
RRIRFRPPRLPRPRPRPLGDPRP | 0.4
RRIRPRPPRLPRPRPRPRCAPRP | 1.73
RRIRERPPRLPRPRPRPRGNPRP | -0.598
RRIRMRPPRLPRPRPRPPHMPRP | 0.296
RRIRMRPPRLPRPRPRPAYNPRP | -0.236
RRIRDRPPRLPRPRPRPQGYPRP | -0.0816
RRIRARPPRLPRPRPRPVDEPRP | 0.33
RRIRARPPRLPRPRPRPIDWPRP | 0.0607
RRIRLRPPRLPRPRPRPGYNPRP | -0.774
RRIRTRPPRLPRPRPRPMVMPRP | -0.0384
RRIRNRPPRLPRPRPRPVHCPRP | -0.123
RRIRQRPPRLPRPRPRPSCVPRP | -0.478
RRIRNRPPRLPRPRPRPSFMPRP | -1.21

Sequence | shrunken log2 fold change
RRIRWRPPRLPRPRPRPQYIPRP | -0.944
RRIRFRPPRLPRPRPRPFSFPRP | -0.499
RRIRNRPPRLPRPRPRPLYMPRP | -0.308
RRIRCRPPRLPRPRPRPCHAPRP | -0.191
RRIRMRPPRLPRPRPRPPSAPRP | 1.2
RRIRIRPPRLPRPRPRPWATPRP | 0.16
RRIRYRPPRLPRPRPRPCRLPRP | 0.0249
RRIRFRPPRLPRPRPRPVILPRP | -1
RRIRLRPPRLPRPRPRPSFKPRP | -0.572
RRIRARPPRLPRPRPRPIRRPRP | 0.24
RRIRPRPPRLPRPRPRPIWRPRP | 0.583
RRIRNRPPRLPRPRPRPLSQPRP | -0.00581
RRIRTRPPRLPRPRPRPDVCPRP | 0.11
RRIRQRPPRLPRPRPRPRGKPRP | 0.00142
RRIRCRPPRLPRPRPRPQSVPRP | -0.125
RRIRDRPPRLPRPRPRPRKPPRP | 0.39
RRIRGRPPRLPRPRPRPCMWPRP | 0.29
RRIRERPPRLPRPRPRPFESPRP | 0.00731
RRIRPRPPRLPRPRPRPRGKPRP | -0.0806
RRIRCRPPRLPRPRPRPVTQPRP | -0.15
RRIRARPPRLPRPRPRPQMKPRP | 0.433
RRIRGRPPRLPRPRPRPASCPRP | 1.06
RRIRQRPPRLPRPRPRPKNVPRP | 0.225
RRIRYRPPRLPRPRPRPMTAPRP | -0.0394
RRIRGRPPRLPRPRPRPNHMPRP | -0.0194

Sequence | shrunken log2 fold change
RRIRGRPPRLPRPRPRPGHCPRP | 0.4
RRIRKRPPRLPRPRPRPIPNPRP | 0.159
RRIRSRPPRLPRPRPRPDFFPRP | -0.0547
RRIRCRPPRLPRPRPRPCNIPRP | -0.3
RRIRWRPPRLPRPRPRPSQAPRP | -0.126
RRIRSRPPRLPRPRPRPWMEPRP | -0.384
RRIRPRPPRLPRPRPRPWYIPRP | -0.472
RRIRNRPPRLPRPRPRPLQIPRP | -0.143
RRIRFRPPRLPRPRPRPRNPPRP | 0.118
RRIRERPPRLPRPRPRPQEVPRP | -0.0156
RRIRPRPPRLPRPRPRPDGPPRP | -0.101
RRIRTRPPRLPRPRPRPCTQPRP | -0.123
RRIRCRPPRLPRPRPRPNIIPRP | 0.796
RRIRVRPPRLPRPRPRPCIRPRP | -0.198
RRIRLRPPRLPRPRPRPDFRPRP | 0.0254
RRIRRRPPRLPRPRPRPCRDPRP | 0.0656
RRIRTRPPRLPRPRPRPHMVPRP | 0.00159
RRIRRRPPRLPRPRPRPWMMPRP | 0.0519
RRIRCRPPRLPRPRPRPMHMPRP | -0.14
RRIRDRPPRLPRPRPRPFREPRP | -0.376
RRIRVRPPRLPRPRPRPKYVPRP | -0.163
RRIRCRPPRLPRPRPRPWREPRP | 0.13
RRIRVRPPRLPRPRPRPLSAPRP | -0.0281
RRIRIRPPRLPRPRPRPINIPRP | -1.41
RRIRGRPPRLPRPRPRPPFFPRP | 0.851

Sequence | shrunken log2 fold change
RRIRFRPPRLPRPRPRPHWWPRP | 0.154
RRIRHRPPRLPRPRPRPCPGPRP | -0.541
RRIRMRPPRLPRPRPRPLSWPRP | 0.982
RRIRGRPPRLPRPRPRPSGHPRP | -0.202
RRIRSRPPRLPRPRPRPYNNPRP | -0.785
RRIRLRPPRLPRPRPRPFCLPRP | -0.485
RRIRLRPPRLPRPRPRPMKPPRP | -0.0332
RRIRSRPPRLPRPRPRPILLPRP | -0.334
RRIRHRPPRLPRPRPRPLDSPRP | -0.448
RRIRSRPPRLPRPRPRPYKVPRP | -0.0179
RRIRQRPPRLPRPRPRPGYKPRP | -0.0992
RRIRWRPPRLPRPRPRPQPRPRP | 0.462
RRIRYRPPRLPRPRPRPDFDPRP | -0.0161
RRIRYRPPRLPRPRPRPYFYPRP | -0.49
RRIRERPPRLPRPRPRPKCYPRP | -1.04
RRIRLRPPRLPRPRPRPGACPRP | 0.264
RRIRERPPRLPRPRPRPVIMPRP | -0.458
RRIRIRPPRLPRPRPRPDDYPRP | 0.07
RRIRVRPPRLPRPRPRPKFKPRP | -0.2
RRIRIRPPRLPRPRPRPMAPPRP | -0.0415
RRIRQRPPRLPRPRPRPDFWPRP | 0.0103
RRIRYRPPRLPRPRPRPSSTPRP | -0.158
RRIRDRPPRLPRPRPRPRPIPRP | 0.429
RRIRWRPPRLPRPRPRPMFWPRP | 0.324
RRIRIRPPRLPRPRPRPNARPRP | 0.0831

Sequence | shrunken log2 fold change
RRIRRRPPRLPRPRPRPHQTPRP | 0.17
RRIRCRPPRLPRPRPRPYEKPRP | -0.0213
RRIRTRPPRLPRPRPRPEEVPRP | -0.0075
RRIRFRPPRLPRPRPRPYKKPRP | -0.415
RRIRKRPPRLPRPRPRPHNIPRP | -0.1
RRIRFRPPRLPRPRPRPQKQPRP | -0.199
RRIRMRPPRLPRPRPRPDWNPRP | -0.0431
RRIRARPPRLPRPRPRPIRTPRP | 0.0627
RRIRARPPRLPRPRPRPGSMPRP | 0.135
RRIRYRPPRLPRPRPRPRPCPRP | -0.117
RRIRERPPRLPRPRPRPFEFPRP | -0.629
RRIRFRPPRLPRPRPRPSMDPRP | -0.819
RRIRWRPPRLPRPRPRPLLAPRP | 1.03
RRIRCRPPRLPRPRPRPLDCPRP | 0.0147
RRIRWRPPRLPRPRPRPGQRPRP | 0.153
RRIRGRPPRLPRPRPRPMKRPRP | 0.343
RRIRRRPPRLPRPRPRPDYGPRP | -0.28
RRIRVRPPRLPRPRPRPHNQPRP | -0.471
RRIRGRPPRLPRPRPRPIICPRP | 0.026
RRIRCRPPRLPRPRPRPMQFPRP | -0.113
RRIRPRPPRLPRPRPRPWEKPRP | -0.106
RRIRKRPPRLPRPRPRPGMAPRP | 0.315
RRIRVRPPRLPRPRPRPGYRPRP | -0.203
RRIRRRPPRLPRPRPRPFMVPRP | -0.242
RRIRHRPPRLPRPRPRPTVKPRP | -0.255
